Changes are numbered by the printed parent chain.
T1: Cynomolgus CD3εδ Fc heterodimer (Cy CD3ε Fc / CD3δ Fc-HIS) (cynomolgus, UniProt Q95LI8 22-100)
T1 chain 1: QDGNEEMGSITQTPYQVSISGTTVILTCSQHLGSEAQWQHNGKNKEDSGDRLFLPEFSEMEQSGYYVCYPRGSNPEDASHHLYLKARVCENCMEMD
T1 chain 2: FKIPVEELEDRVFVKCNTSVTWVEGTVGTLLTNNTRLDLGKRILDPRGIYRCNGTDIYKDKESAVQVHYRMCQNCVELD

B1: SAD10319_P02_G06 (ADI-48632) (antibody, V domains shown)
VH: QVQLVQSGAEVKKPGASVKVSCKASGYTFTSYAMHWVRQAPGQRLEWMGWINPDTGATVYSQKFQGRVTITRDTSASTAYMELSSLRSEDTAVYYCARDAYHHYFYDVWGQGTLVTVSS
VL: DIVMTQSPDSLAVSLGERATINCKSSQSLLNARTGKNYLAWYQQKPGQPPKLLIYWASTRESGVPDRFSGSGSGTDFTLTISSLQAEDVAVYYCKQSYSRRTFGGGTKVEIK
notes: IgG; also called Ab15
B2: SAD10319_P04_E12 (ADI-48642) (antibody, V domains shown)
VH: B1 VH with A33P, N52D, P53A, D54G, A57L, V59T, A100H, H103R, V108M
VL: B1 VL
notes: IgG; also called Ab43
B3: SAD10320_P01_H02 (ADI-57352) (antibody, V domains shown)
VH: QVQLVQSGAEVKKPGASVKVSCKASGFNIKDYYMHWVRQAPGQRLEWMGWIDLENANTIYDAKFQGRVTITRDTSASTAYMELSSLRSEDTAVYYCARDAYGHSFYDVWGQGTLVTVSS
VL: B1 VL with Y98M, S99H
B4: SAD10320_P02_C05 (ADI-57365) (antibody, V domains shown)
VH: B3 VH with F27S
VL: B1 VL with S99H, R100G
notes: IgG; also called Ab76
B5: SAD10320_P01_H03 (ADI-57359) (antibody, V domains shown)
VH: B3 VH with L45P, Y101A, G102H, H103R, S104Y
VL: B1 VL with T34P, G35R, Y98H, S99D
notes: IgG; also called Ab67
B6: SAD10320_P01_G03 (ADI-57358) (antibody, V domains shown)
VH: B3 VH with L45P
VL: B1 VL with S99H, R100W
notes: IgG; also called Ab66
B7: SAD10319_P03_G08 (ADI-48638) (antibody, V domains shown)
VH: B1 VH with T30S, A33D, N52D, P53A, D54G, A57F, V59K, H102G, V108H
VL: B1 VL
notes: IgG; also called Ab22
B8: SAD10320_P02_B04 (ADI-57273) (antibody, V domains shown)
VH: B3 VH with W47R, S104G
VL: B1 VL with S99G, R100H
notes: IgG; ADI-57273 is also printed for Ab114; also called Ab70
B9: SAD10319_P03_D08 (ADI-57327) (antibody, V domains shown)
VH: B1 VH with T30Y, A33E, E46D, D54Q, V59K
VL: B1 VL
notes: IgG; also called Ab20
B10: SAD10319_P04_F12 (ADI-57343) (antibody, V domains shown)
VH: B1 VH with T30N, S31D, E46D, A57N, V59N, A100H, H102G, H103R, V108H
VL: B1 VL
notes: IgG; also called Ab44
B11: SAD10320_P01_F01 (ADI-57345) (antibody, V domains shown)
VH: B3 VH with L45P, E46A, Y101S, G102H, H103R, S104Y
VL: B1 VL with K95G, Q96H
notes: IgG; also called Ab50
B12: SAD10320_P01_C02 (ADI-57348) (antibody, V domains shown)
VH: B3 VH with E46D, Y101G, G102H, H103R, S104Y
VL: B1 VL with T34P, K95G, Q96H
notes: IgG; also called Ab54
B13: SAD10319_P04_D12 (ADI-57342) (antibody, V domains shown)
VH: B1 VH with E46D, W50Y, A57D, V59K
VL: B1 VL
notes: IgG; also called Ab42
B14: SAD10320_P01_G02 (ADI-57351) (antibody, V domains shown)
VH: B3 VH with E46Q
VL: B1 VL with S99H, R100E
notes: IgG; also called Ab57
B15: SAD10319_P03_G07 (ADI-57325) (antibody, V domains shown)
VH: B1 VH with T30D, A33L, N52D, P53A, D54G, V59N, Y101H, H102G
VL: B1 VL
notes: IgG; also called Ab18
B16: SAD10319_P03_H07 (ADI-57326) (antibody, V domains shown)
VH: B1 VH with T30N, A33D, D54Y, A57E, V59K, A100H, H102G
VL: B1 VL
notes: IgG; also called Ab19
B17: SAD10320_P02_A05 (ADI-57363) (antibody, V domains shown)
VH: B3 VH with S104M
VL: B1 VL with T34P, S99H, R100M
B18: SAD10320_P01_D03 (ADI-57356) (antibody, V domains shown)
VH: B3 VH with N28D, S104A
VL: B1 VL with S99H, R100G
notes: IgG; also called Ab63
B19: SAD10319_P04_E11 (ADI-57338) (antibody, V domains shown)
VH: B1 VH with S31D, A33N, D54Y, A57Y, V59K, A100H, H102G
VL: B1 VL
notes: IgG; also called Ab37
B20: SAD10320_P01_C03 (ADI-57355) (antibody, V domains shown)
VH: B3 VH
VL: B1 VL with S99H, R100W
notes: IgG; also called Ab62
B21: SAD10319_P04_C10 (ADI-57333) (antibody, V domains shown)
VH: B1 VH with S31D, A33S, W50S, P53A, D54G, A57I, V59K, Y101H, H102G, H103R
VL: B1 VL
notes: IgG; also called Ab31
B22: SAD10319_P04_C12 (ADI-57341) (antibody, V domains shown)
VH: B1 VH with S31A, A33D, W47R, N52D, D54I, A57N, V59K, R98H, H102G
VL: B1 VL
notes: IgG; also called Ab41
B23: SAD10319_P03_E08 (ADI-48637) (antibody, V domains shown)
VH: QVQLVQSGAEVKKPGASVKVSCKASGYTFNDYAMHWVRQAPGQRLEWMGYINGTGATVYSQKFQGRVTITRDTSASTAYMELSSLRSEDTAVYYCARDAYHHYFYDVWSQGTLVTVSS
VL: B1 VL
notes: IgG; also called Ab21
B24: SAD10320_P01_G01 (ADI-57346) (antibody, V domains shown)
VH: B3 VH
VL: B1 VL with S99H, R100L
notes: IgG; also called Ab51
B25: SAD10319_P04_F11 (ADI-57339) (antibody, V domains shown)
VH: B1 VH with S31D, A33N, E46Q, D54Y, A57Y, V59K, A100H, H102G
VL: B1 VL
notes: IgG; also called Ab38
B26: SAD10319_P04_B11 (ADI-57335) (antibody, V domains shown)
VH: B1 VH with T30G, A33D, N52D, P53A, D54G, V59K, Y101H, H102G
VL: B1 VL
notes: IgG; also called Ab33
B27: SAD10319_P04_H12 (ADI-57344) (antibody, V domains shown)
VH: B1 VH with Y32D, A33H, W50S, P53A, D54G, V59K, H102G, V108H
VL: B1 VL
notes: IgG; also called Ab45
B28: SAD10320_P01_E03 (ADI-57357) (antibody, V domains shown)
VH: B3 VH with W47R, S104G
VL: B1 VL with S99R, R100H
notes: IgG; also called Ab64
B29: SAD10320_P01_F02 (ADI-57350) (antibody, V domains shown)
VH: B3 VH with W47R, S104T
VL: B1 VL with S99W, R100H
notes: IgG; also called Ab56
B30: SAD10320_P02_H04 (ADI-57362) (antibody, V domains shown)
VH: B3 VH with E46D, S104L
VL: B1 VL with Y98H, S99M
notes: IgG; also called Ab73
B31: SAD10319_P03_G09 (ADI-57300) (antibody, V domains shown)
VH: B1 VH with A33D, N52D, D54H, V59K, H102G, H103R, V108H
VL: B1 VL
notes: IgG; ADI-57300 is also printed for Ab234; also called Ab28
B32: SAD10319_P04_C11 (ADI-57336) (antibody, V domains shown)
VH: B1 VH with T30H, A33E, D54S, A57S, V59K, H102G, H103R, V108H
VL: B1 VL
notes: IgG; also called Ab34
B33: SAD10319_P03_H08 (ADI-57328) (antibody, V domains shown)
VH: B1 VH with T30K, A33D, L45P, P53A, D54G, A57N, H103R
VL: B1 VL
notes: IgG; also called Ab23
B34: SAD10319_P03_F09 (ADI-57329) (antibody, V domains shown)
VH: B1 VH with T30P, A33P, E46D
VL: B1 VL with L29P
notes: IgG; also called Ab27
B35: SAD10319_P04_A10 (ADI-57331) (antibody, V domains shown)
VH: B1 VH with Y32D, E46A, W50Y, P53A, D54G, A57T, V59K, R98H, H102G
VL: B1 VL
notes: IgG; also called Ab29
B36: SAD10319_P04_D11 (ADI-57337) (antibody, V domains shown)
VH: QVQLVQSGAEVKKPGASVKVSCKASGYTFNSYRMHWVRQAPGQRLEWMGSIDAGTGNTKYSQKFQGRVTITRDTSASTAYMELSSLRSEDTAVYYCARDAYGRYFYDHWGQGTLVTVSS
VL: B1 VL
notes: IgG; also called Ab35
B37: SAD10319_P04_G11 (ADI-48641) (antibody, V domains shown)
VH: B36 VH with S21Y, N30T, S31T, R33E, D52N, T55D, G56A, G102H, R103H, H108V
VL: B1 VL
notes: IgG; also called Ab39
B38: SAD10320_P02_A04 (ADI-57360) (antibody, V domains shown)
VH: B3 VH with S104A
VL: B1 VL with Y98L, S99H
notes: IgG; also called Ab68
B39: SAD10320_P01_H01 (ADI-57347) (antibody, V domains shown)
VH: B3 VH with E46D, S104N
VL: B1 VL with S99H, R100K
notes: IgG; also called Ab52
B40: SAD10320_P02_B05 (ADI-57364) (antibody, V domains shown)
VH: B3 VH with S104N
VL: B1 VL with S99T, R100H
notes: IgG; also called Ab75

Target: T1, Cynomolgus CD3εδ Fc heterodimer (Cy …)
Test: BLI (Octet), IgG on AHC sensor, pH 6.0

koff [s⁻¹]	Binder
0.0242	B1
0.00307	B2
0.00334	B3
0.0207	B4
0.00291	B5
0.0215	B6
0.0168	B7
0.0176	B8
0.02	B9
0.0162	B10
0.00642	B11
0.00277	B12
0.012	B13
0.0197	B14
0.0187	B15
0.0201	B16
0.0168	B17
0.00263	B18
0.0239	B19
0.0195	B20

koff [s⁻¹]	Binder
0.00124	B21
0.0196	B22
0.0197	B23
0.0144	B24
0.00202	B25
0.00273	B26
0.0047	B27
0.0223	B28
0.0194	B29
0.0278	B30
0.0219	B31
0.00317	B32
0.00348	B33
0.0199	B34
0.0262	B35
0.00339	B36
0.00317	B37
0.0182	B38
0.0207	B39
0.00269	B40
